Results as given in paper PMC4021362.

Test system: Hydra Myc2 p15;Hydra Max p22 (Hydra magnipapillata?;Hydra magnipapillata?)
Experiment: EMSA
Conditions: equimolar mixture, heterodimer; EMSA with 0.3 ng (25,000 cpm) 32P-labeled 18-mer dsDNA; binding buffer, salt, pH and temperature not given in the material

E-box USF 18-mer was tested. Which Kd did it give?
The Kd was 17.4 nM.
